Data: patent publication US20140161799A1 (ARCH ONCOLOGY, published 2014)
Positions count from the first letter of the chain named.

T1: mouse CD47 (mouse, UniProt Q61735 19-303)
T1 construct: whole, on cells; also called CD47 on mouse red blood cells
T1 sequence (looked up): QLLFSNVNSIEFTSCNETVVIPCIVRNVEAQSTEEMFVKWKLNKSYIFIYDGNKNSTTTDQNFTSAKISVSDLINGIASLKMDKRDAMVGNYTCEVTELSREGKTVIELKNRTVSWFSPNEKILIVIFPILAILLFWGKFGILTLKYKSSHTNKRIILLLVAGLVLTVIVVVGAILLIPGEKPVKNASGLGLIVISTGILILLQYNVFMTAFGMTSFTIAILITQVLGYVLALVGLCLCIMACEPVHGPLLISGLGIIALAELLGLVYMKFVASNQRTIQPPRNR

T2: rat CD47 (rat, UniProt P97829 19-303)
T2 construct: whole, on cells; also called CD47 on rat red blood cells
T2 sequence (looked up): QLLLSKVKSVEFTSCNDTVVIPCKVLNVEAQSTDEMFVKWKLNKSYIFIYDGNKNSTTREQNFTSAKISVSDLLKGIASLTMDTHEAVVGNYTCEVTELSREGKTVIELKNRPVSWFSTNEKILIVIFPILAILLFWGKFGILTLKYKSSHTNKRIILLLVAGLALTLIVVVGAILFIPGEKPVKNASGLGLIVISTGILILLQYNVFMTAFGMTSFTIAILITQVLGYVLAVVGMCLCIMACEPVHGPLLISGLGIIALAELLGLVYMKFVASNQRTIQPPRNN

T3: pig CD47 (pig, UniProt Q9GKE8 19-303)
T3 construct: whole, on cells; also called CD47 on pig red blood cells
T3 sequence (looked up): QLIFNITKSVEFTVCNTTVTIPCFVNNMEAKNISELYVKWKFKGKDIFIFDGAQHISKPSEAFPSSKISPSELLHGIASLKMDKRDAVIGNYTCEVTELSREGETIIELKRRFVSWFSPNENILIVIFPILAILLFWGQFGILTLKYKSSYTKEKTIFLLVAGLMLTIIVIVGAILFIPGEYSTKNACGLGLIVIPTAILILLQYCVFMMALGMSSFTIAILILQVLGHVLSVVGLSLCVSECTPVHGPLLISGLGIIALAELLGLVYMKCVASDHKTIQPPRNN

B1: chimeric antibody VxP037-01LC/VxP037-01HC (antibody, human IgG1, kappa, V domains shown)
VH: EVQLQQFGAELVKPGASMKLSCKASGYTFTNYYVFWVKQRPGQGLEWIGDINPVNGDTNFNEKFKNKATLTVDKSSTTTYLQLSSLTSEDSAVYYCTRGGYTMDYWGQGTLVTVSS
VL: DVVMTQTPLSLSVSLGDQASISCRSSQSLVHSNGNTYLHWYLQKPGQSPKLLIYKVSYRFSGVPDRFSGSGSGTDFTLKISRVEAEDLGVYFCSQNTHVPRTFGQGTKVEIKR
notes: tested as CHO supernatant; also called Chimera; VxP037-01-LC-Pro/VxP037-01-HC-Pro
B2: pVxK7b-037-hum24-LC/pVxK7b-037-hum24-HC (antibody, human IgG1, V domains shown)
VH: QVQLQESGPGLVKPGATVKISCKVSGYTFTNYYVFWVRQARGQRLEWIGDINPVNGDTNFNEKFKNRVTITADKSTSTAYMELSSLRSEDTAVYYCARGGYTMDYWGQG
VL: AIQLTQSPSSLSASVGDRVTITCRSSQSLVHSNGNTYLHWYQQKPGQAPRLLIYKVSYRFSGVPSRFSGSGSGTEFTLTISSLQPDDFATYYCSQNTHVPRTFGQG
notes: Full-length human IgG1/kappa in CHO supernatant; Variable entries end within framework 4 (...FGQG / ...WGQG); also called Clone 24
B3: pVxK7b-037-hum15-LC/pVxK7b-037-hum15-HC (antibody, human IgG1, V domains shown)
VH: QVQLQESGPGLVKPSQTLSLTCTVSGYTFTNYYVFWVRQARGQRLEWIGDINPVNGDTNFNEKFKNRLTISKDTSKNQVVLTMTNMDPVDTATYYCARGGYTMDYWGQG
VL: B2 VL
notes: Full-length human IgG1/kappa in CHO supernatant; Variable entries end within framework 4 (...FGQG / ...WGQG); also called Clone 15
B4: pVxK7b-037-hum07-LC/pVxK7b-037-hum07-HC (antibody, human IgG1, V domains shown)
VH: B2 VH
VL: DIVMTQTPLSLPVTPGEPASISCRSSQSLVHSNGNTYLHWYLQKPGQSPQLLIYKVSYRFSGVPDRFSGSGSGTDFTLKISRVEAEDVGVYYCSQNTHVPRTFGQG
notes: Full-length human IgG1/kappa in CHO supernatant; Variable entries end within framework 4 (...FGQG / ...WGQG); also called Clone 7
B5: pVxK7b-037-hum04-LC/pVxK7b-037-hum04-HC (antibody, human IgG1, V domains shown)
VH: QVQLQESGPGLVKPSQTLSLTCTVSGYTFTNYYVFWVRQAPGKGLEWVSDINPVNGDTNFNEKFKNRVTISVDTSKNQFSLKLSSVTAADTAVYYCARGGYTMDYWGQG
VL: B2 VL with A1D, L4M, Q42L, A48S, R50Q, V63I, S65A, P85S, D86E, T90V
notes: Full-length human IgG1/kappa in CHO supernatant; Variable entries end within framework 4 (...FGQG / ...WGQG); also called Clone 4
B6: pVxK7b-037-hum21-LC/pVxK7b-037-hum21-HC (antibody, human IgG1, V domains shown)
VH: B3 VH
VL: AIQLTQSPSSLSASVGDRVTITCRSSQSLVHSNGNTYLHWYQQKPGQAPRLLIYKVSYRFSGVPDRFSGSGSGTDFTLKISRVEAEDVGVYYCSQNTHVPRTFGQG
notes: Full-length human IgG1/kappa in CHO supernatant; Variable entries end within framework 4 (...FGQG / ...WGQG); also called Clone 21
B7: pVxK7b-037-hum12-LC/pVxK7b-037-hum12-HC (antibody, human IgG1, V domains shown)
VH: B2 VH
VL: B4 VL with L42Q, Q47K, S48A, Q50K
notes: Full-length human IgG1/kappa in CHO supernatant; Variable entries end within framework 4 (...FGQG / ...WGQG); also called Clone 12
B8: pVxK7b-037-hum06-LC/pVxK7b-037-hum06-HC (antibody, human IgG1, V domains shown)
VH: B3 VH
VL: B2 VL with A1D, L4M, Q42L, A48S, R50Q, V63I, S65A, P85S, D86E, T90V
notes: Full-length human IgG1/kappa in CHO supernatant; Variable entries end within framework 4 (...FGQG / ...WGQG); also called Clone 6
B9: pVxK7b-037-hum02-LC/pVxK7b-037-hum02-HC (antibody, human IgG1, V domains shown)
VH: QVQLQESGPGLVKPSQTLSLTCTVSGYTFTNYYVFWVRQARGQRLEWIGDINPVNGDTNFNEKFKNRVTISADKSISTAYLQWSSLKASDTAMYYCARGGYTMDYWGQG
VL: DVVMTQSPLSLPVTLGQPASISCRSSQSLVHSNGNTYLHWYQQKPGQAPRLLIYKVSYRFSGVPSRFSGSGSGTEFTLTISSLQPDDFATYYCSQNTHVPRTFGQG
notes: Full-length human IgG1/kappa in CHO supernatant; Variable entries end within framework 4 (...FGQG / ...WGQG); also called Clone 2
B10: pVxK7b-037-hum19-LC/pVxK7b-037-hum19-HC (antibody, human IgG1, V domains shown)
VH: EVQLVQSGAEVKKPGESLRISCKGSGYTFTNYYVFWIRQSPSRGLEWLGDINPVNGDTNFNEKFKNRVTITADKSTSTAYMELSSLRSEDTAVYYCARGGYTMDYWGQG
VL: B4 VL with I2V, T7S, P15L, E17Q, L42Q, Q47K, S48A, Q50K
notes: Full-length human IgG1/kappa in CHO supernatant; Variable entries end within framework 4 (...FGQG / ...WGQG); also called Clone 19
B11: pVxK7b-037-hum23-LC/pVxK7b-037-hum23-HC (antibody, human IgG1, V domains shown)
VH: B3 VH
VL: B4 VL with L42Q, Q47K, S48A, Q50K
notes: Full-length human IgG1/kappa in CHO supernatant; Variable entries end within framework 4 (...FGQG / ...WGQG); also called Clone 23
B12: pVxK7b-037-hum08-LC/pVxK7b-037-hum08-HC (antibody, human IgG1, V domains shown)
VH: QITLKESGPTLVKPTQTLTLTCTFSGYTFTNYYVFWIRQSPSRGLEWLGDINPVNGDTNFNEKFKNRFTISRDNAKNSLYLQMNSLRAEDTAVYYCARGGYTMDYWGQG
VL: B4 VL with L42Q, Q47K, S48A, Q50K
notes: Full-length human IgG1/kappa in CHO supernatant; Variable entries end within framework 4 (...FGQG / ...WGQG); also called Clone 8
B13: pVxK7b-037-hum05-LC/pVxK7b-037-hum05-HC (antibody, human IgG1, V domains shown)
VH: B5 VH
VL: B4 VL
notes: Full-length human IgG1/kappa in CHO supernatant; Variable entries end within framework 4 (...FGQG / ...WGQG); also called Clone 5
B14: pVxK7b-037-hum03-LC/pVxK7b-037-hum03-HC (antibody, human IgG1, V domains shown)
VH: B10 VH with I37V, S40A, P41R, S42G, R43Q, G44R, L48I
VL: B4 VL with I2V, T7S, P15L, E17Q, L42Q, Q47K, S48A, Q50K
notes: Full-length human IgG1/kappa in CHO supernatant; Variable entries end within framework 4 (...FGQG / ...WGQG); also called Clone 3
B15: pVxK7b-037-hum13-LC/pVxK7b-037-hum13-HC (antibody, human IgG1, V domains shown)
VH: B10 VH
VL: B4 VL with L42Q, Q47K, S48A, Q50K
notes: Full-length human IgG1/kappa in CHO supernatant; Variable entries end within framework 4 (...FGQG / ...WGQG); also called Clone 13
B16: pVxK7b-037-hum09-LC/pVxK7b-037-hum09-HC (antibody, human IgG1, V domains shown)
VH: B3 VH
VL: B4 VL with I2V, T7S, P15L, E17Q, L42Q, Q47K, S48A, Q50K
notes: Full-length human IgG1/kappa in CHO supernatant; Variable entries end within framework 4 (...FGQG / ...WGQG); also called Clone 9

biological target: T4, human CD47 (human, UniProt Q08722 19-323); test: flow cytometry on RBCs, antibody 10 ng/ml
T4 construct: whole, on cells; also called CD47 on human red blood cells
Experimental: (§1) Cross species reactivity of humanized antibodies of the present invention is determined using freshly isolated red blood cells (RBCs), which display CD47 on their surface, from human, mouse, rat, and pig according to the methods disclosed in Kamel et al. (2010) Blood. Transfus. 8(4):260-266.
(§2) RBCs are incubated for 60 minutes on ice with tissue culture supernatants containing the secreted humanized antibodies at a concentration of 10 ng/ml in a solution of phosphate buffered saline, pH 7.2, 2.5 mM EDTA (PBS+E). Cells are then washed with cold PBS+E, and incubated for an additional hour on ice with FITC labeled donkey anti-human antibody (Jackson Immuno Research Labs, West Grove, Pa.; Catalogue #709-096-149) in PBS+E. Cells are then washed with PBS+E, and antibody binding is analyzed using a BD FACSAria Cell Sorter (Becton Dickinson) or a C6 Accuri Flow Cytometer (Becton Dickinson). Antibody binding is quantitated by comparison of mean fluorescence values relative to that of chimeric antibody >VxP037-01LC (SEQ ID NO:7))/>VxP037-01HC (SEQ ID NO:57). The mean fluorescence value for each antibody is divided by the mean fluorescence value for the chimeric antibody.

T4 sequence (Q08722 19-323): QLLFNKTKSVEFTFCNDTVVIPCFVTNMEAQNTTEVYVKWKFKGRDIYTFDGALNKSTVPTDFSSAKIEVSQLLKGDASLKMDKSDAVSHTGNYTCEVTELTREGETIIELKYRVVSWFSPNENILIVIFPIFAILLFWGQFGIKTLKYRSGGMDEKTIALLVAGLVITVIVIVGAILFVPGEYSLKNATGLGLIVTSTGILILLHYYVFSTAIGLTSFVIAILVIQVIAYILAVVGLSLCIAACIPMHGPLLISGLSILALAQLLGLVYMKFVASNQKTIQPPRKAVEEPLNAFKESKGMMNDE

mean fluorescence relative to chimeric antibody | Binder
1 fold of chimera | B1
0.8 fold of chimera | B2
1 fold of chimera | B3
0.5 fold of chimera | B4
0.6 fold of chimera | B5
1.2 fold of chimera | B6
0.8 fold of chimera | B7
0.9 fold of chimera | B8
1 fold of chimera | B9
0.7 fold of chimera | B10
1.2 fold of chimera | B11
0.7 fold of chimera | B12
1 fold of chimera | B13
0.7 fold of chimera | B14
1.2 fold of chimera | B15
1.2 fold of chimera | B16

biological target: T1, mouse CD47; test: flow cytometry on RBCs, antibody 10 ng/ml
Experimental: as §1, §2

mean fluorescence relative to chimeric antibody | Binder
1 fold of chimera | B1
0.7 fold of chimera | B2
1.3 fold of chimera | B3
0.4 fold of chimera | B4
0.6 fold of chimera | B5
1.2 fold of chimera | B6
0.6 fold of chimera | B7
1.2 fold of chimera | B8
1.2 fold of chimera | B9
1 fold of chimera | B10
1.4 fold of chimera | B11
0.7 fold of chimera | B12
1 fold of chimera | B13
0.9 fold of chimera | B14
1.3 fold of chimera | B15
1.4 fold of chimera | B16

biological target: T2, rat CD47; test: flow cytometry on RBCs, antibody 10 ng/ml
Experimental: as §1, §2

mean fluorescence relative to chimeric antibody | Binder
1 fold of chimera | B1
1.2 fold of chimera | B2
2.4 fold of chimera | B3
0.8 fold of chimera | B4
1 fold of chimera | B5
2.8 fold of chimera | B6
1.3 fold of chimera | B7
2.1 fold of chimera | B8
2.6 fold of chimera | B9
2.6 fold of chimera | B10
3.3 fold of chimera | B11
1.2 fold of chimera | B12
2.2 fold of chimera | B13
1.7 fold of chimera | B14
3.1 fold of chimera | B15
3.7 fold of chimera | B16

biological target: T3, pig CD47; test: flow cytometry on RBCs, antibody 10 ng/ml
Experimental: as §1, §2

mean fluorescence relative to chimeric antibody | Binder
1 fold of chimera | B1
1.1 fold of chimera | B2
1.2 fold of chimera | B3
0.9 fold of chimera | B4
0.6 fold of chimera | B5
1.4 fold of chimera | B6
1.4 fold of chimera | B7
1.1 fold of chimera | B8
1.2 fold of chimera | B9
1.3 fold of chimera | B10
1.7 fold of chimera | B11
0.8 fold of chimera | B12
1.2 fold of chimera | B13
0.9 fold of chimera | B14
1.4 fold of chimera | B15
1.6 fold of chimera | B16
